In article doi:10.1101/2025.09.16.676506 (bioRxiv, 2025):
Read-outs that look alike come from different tables or passages of the source.

How the values were obtained:
Assay in all cases: cryo-EM structure
[1] = target: T1, TatC with a C-terminal 3XFLAG tag (E. coli), P69423; settings: remark: other sources report otherwise
T1 chain: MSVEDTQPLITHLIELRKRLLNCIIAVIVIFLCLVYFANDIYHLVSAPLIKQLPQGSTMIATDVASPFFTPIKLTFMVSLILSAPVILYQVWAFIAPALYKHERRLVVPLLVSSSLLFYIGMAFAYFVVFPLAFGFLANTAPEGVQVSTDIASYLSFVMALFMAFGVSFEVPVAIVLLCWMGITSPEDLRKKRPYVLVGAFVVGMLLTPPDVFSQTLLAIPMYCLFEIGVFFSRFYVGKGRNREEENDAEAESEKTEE

TatB3C3 complex [2] = target: T2, TatB3C3 complex (E. coli, UniProt P69425;P69423)
T2 sequence 1: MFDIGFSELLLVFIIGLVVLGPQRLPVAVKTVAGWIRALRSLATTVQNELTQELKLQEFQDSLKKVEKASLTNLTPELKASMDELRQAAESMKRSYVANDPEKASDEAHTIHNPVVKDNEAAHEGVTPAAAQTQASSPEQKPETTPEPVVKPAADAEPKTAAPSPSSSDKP
T2 sequence 2: T1 chain

TatB3C3 complex [3] = target: T2, TatB3C3 complex; remark: listed apart in the source
cryo-EM structure = target: the molecule itself

B1: TatC with a C-terminal 3XFLAG tag, P69423 1-258 (natural protein)
chain: T1 chain
stoichiometry N [1]: 3

B2: SufI–8×His (natural protein)
chain: MSLSRRQFIQASGIALCAGAVPLKASAAGQQQPLPVPPLLESRRGQPLFMTVQRAHWSFTPGTRASVWGINGRYLGPTIRVWKGDDVKLIYSNRLTENVSMTVAGLQVPGPLMGGPARMMSPNADWAPVLPIRQNAATLWYHANTPNRTAQQVYNGLAGMWLVEDEVSKSLPIPNHYGVDDFPVIIQDKRLDNFGTPEYNEPGSGGFVGDTLLVNGVQSPYVEVSRGWVRLRLLNASNSRRYQLQMNDGRPLHVISGDQGFLPAPVSVKQLSLAPGERREILVDMSNGDEVSITCGEAASIVDRIRGFFEPSSILVSTLVLTLRPTGLLPLVTDSLPMRLLPTEIMAGSPIRSRDISLGDDPGINGQLWDVNRIDVTAQQGTWERWTVRADEPQAFHIEGVMFQIRNVNGAMPFPEDRGWKDTVWVDGQVELLVYFGQPSWAHFPFYFNSQTLEMADRGSIGQLLVNPVP
stoichiometry N (TatB3C3 complex [2]): 1
stoichiometry N (TatB3C3 complex [3]): 2

B3: TatB (natural protein)
chain: T2 sequence 1
stoichiometry N (cryo-EM structure): 3
